One experiment addresses MBP-LIC1FL (human). The experiment can be described thus: ITC; protein or peptide in the syringe titrated into the protein in the cell; 20 mM HEPES pH 7.5, 100 mM NaCl, 0.25 mM TCEP; temperature listed in the figures (20 °C for most titrations).
The target of another experiment is MBP-LIC1_(1–461) (human). The experiment is described as above.
The target of another experiment is LIC1_(433–458) (human). Described as above.
For a further experiment, the target named is Hook1_(11–443) (human) (UniProt Q9UJC3). The experiment in a line: ITC; MBP-LIC1FL in the syringe, Hook1_(11–443) in the cell; 30 °C; 20 mM HEPES pH 7.5, 100 mM NaCl, 0.25 mM TCEP. A general note: Isothermal titration calorimetry measures the heat released or taken up as one component is titrated into another.
Hook1_(11–443) (human), sequence (Q9UJC3 11-443): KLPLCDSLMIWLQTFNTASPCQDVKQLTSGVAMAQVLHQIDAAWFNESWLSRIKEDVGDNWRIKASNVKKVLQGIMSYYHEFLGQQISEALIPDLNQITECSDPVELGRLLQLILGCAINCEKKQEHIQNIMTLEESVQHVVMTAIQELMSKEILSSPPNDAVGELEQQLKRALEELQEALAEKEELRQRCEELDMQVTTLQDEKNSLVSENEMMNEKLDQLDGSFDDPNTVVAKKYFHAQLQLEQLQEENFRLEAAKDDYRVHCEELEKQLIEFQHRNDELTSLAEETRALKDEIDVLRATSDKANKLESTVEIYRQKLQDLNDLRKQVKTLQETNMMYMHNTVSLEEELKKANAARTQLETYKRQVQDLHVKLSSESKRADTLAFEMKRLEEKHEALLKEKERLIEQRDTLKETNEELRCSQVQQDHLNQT

What is called Kd is the concentration at which binding is half-saturated. Low readings indicate a tighter complex, high ones a looser complex. Usually stoichiometry N stands for the number of molecules, sites or subunits per partner or assembly.

Hook1_(11–166), sequence (Q9UJC3 11-166): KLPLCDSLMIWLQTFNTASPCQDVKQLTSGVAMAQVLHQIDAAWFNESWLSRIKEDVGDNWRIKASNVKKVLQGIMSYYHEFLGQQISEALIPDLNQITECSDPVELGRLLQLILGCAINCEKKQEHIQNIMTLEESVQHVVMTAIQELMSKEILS

Take “Hook1_(1–239)GCN4 (from UniProt Q9UJC3-1 1-239)”: in the experiment with MBP-LIC1FL (human), the Kd is 12.9 µM and the stoichiometry N amounted to 1.
“Hook1_(11–166) (from UniProt Q9UJC3-1 11-166) (domain or fragment)”: the Kd with MBP-LIC1_(1–461) (human) stood at 10.1 µM; with MBP-LIC1FL (human) it was 12.7 µM; with LIC1_(433–458) (human) it was 15.7 µM. Also, the stoichiometry N in the experiment with MBP-LIC1FL (human) stood at 1.
For MBP-LIC1FL (natural protein), in the experiment with Hook1_(11–443) (human), the Kd amounted to 8.1 µM and the stoichiometry N stood at 1.

The record behind these values is PMC5841405.
